Laboratory results: paper doi:10.1101/2024.12.19.629262 (bioRxiv, 2024)

T1: Cor1, subunit of complex III (S. cerevisiae, UniProt P07256 27-457)
T1 sequence: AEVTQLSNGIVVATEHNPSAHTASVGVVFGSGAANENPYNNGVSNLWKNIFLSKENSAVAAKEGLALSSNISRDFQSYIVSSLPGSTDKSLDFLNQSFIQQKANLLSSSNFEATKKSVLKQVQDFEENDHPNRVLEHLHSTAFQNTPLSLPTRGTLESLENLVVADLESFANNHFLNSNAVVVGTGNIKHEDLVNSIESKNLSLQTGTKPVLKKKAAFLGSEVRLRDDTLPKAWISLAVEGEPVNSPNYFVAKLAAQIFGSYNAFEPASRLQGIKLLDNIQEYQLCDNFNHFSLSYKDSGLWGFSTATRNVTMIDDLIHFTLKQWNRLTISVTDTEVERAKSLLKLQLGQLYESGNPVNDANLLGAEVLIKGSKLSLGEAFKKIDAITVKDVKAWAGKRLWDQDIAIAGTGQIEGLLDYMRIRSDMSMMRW

B1: Nde1, external mitochondrial NADH dehydrogenase (enzyme)
chain: EDKKVILQKVAPTTGVVAKQSFFKRTGKFTLKALLYSALAGTAYVSYSLYREANPSTQVPQSDTFPNGSKRKTLVILGSGWGSVSLLKNLDTTLYNVVVVSPRNYFLFTPLLPSTPVGTIELKSIVEPVRTIARRSHGEVHYYEAEAYDVDPENKTIKVKSSAKNNDYDLDLKYDYLVVGVGAQPNTFGTPGVYEYSSFLKEISDAQEIRLKIMSSIEKAASLSPKDPERARLLSFVVVGGGPTGVEFAAELRDYVDQDLRKWMPELSKEIKVTLVEALPNILNMFDKYLVDYAQDLFKEEKIDLRLKTMVKKVDATTITAKTGDGDIENIPYGVLVWATGNAPREVSKNLMTKLEEQDSRRGLLIDNKLQLLGAKGSIFAIGDCTFHPGLFPTAQVAHQEGEYLAQYFKKAYKIDQLNWKMTHAKDDSEVARLKNQIVKTQSQIEDFKYNHKGALAYIGSDKAIADLAVGEAKYRLAGSFTFLFWKSAYLAMCLSFRNRVLVAMDWAKVYFLGRDSSI
B2: Cox5a, subunit of complex IV (natural protein)
chain: AQTHALSNAAVMDLQSRWENMPSTEQQDIVSKLSERQKLPWAQLTEPEKQAVWYISYGEWGPRRPVLNKGDSSFIAKGVAAGLLFSVGLFAVVRMAGGQDAKTMNKEWQLKSDEYLKSKNANPWGGYSQVQSK

How the values were obtained:
[1] = target: wild-type (untethered) III2IV2 respiratory supercomplex with Cox4-Flag (S. cerevisiae) (UniProt P07256); experiment: co-IP
[2] = target: T1, Cor1, subunit of complex III; experiment: cryo-EM structure

| Binder | fold decrease of co-purified Nde1 (normalised to purified SC) against III2IV1 SC [1] | binding result [2] |
| --- | --- | --- |
| B1 | 2 fold | – |
| B2 | – | binds |
